The target of the assay is T1, monomeric human 4-1BB (human, UniProt Q07011 24-186).
T1 construct: SPR analyte or ligand
Put plainly: SPR with monomeric human 4-1BB.

From patent US20250074995A1 (I MAB BIOPHARMA, published 2025) come the findings set out here.

B1: parental anti-4-1BB sdAb antibody conjugated with IgG1 Fc fragment (Fc fusion)
chain: QVQLQESGGGLVQPGGSLRLSCAASGYTYSSNCMGWFRQAPGKGLEGVAVICTGGGSPSYADSVKGRFTISRDNAKNTLYLQMNSLRAEDTAVYYCAADLLRAGTPLSSYEFNYWGQGTLVTVSS
notes: also called 4-1BB sdAb-Fc; not shown: IgG1 Fc fragment
Take B1: the off-rate constant (koff) (commonly the rate constant with which the complex falls apart) stood at 0.000168 s⁻¹.
